Assay results published in US7939631B2, “APO-2 receptor polypeptides” (Genentech, Inc., priority 1997, dated 2011).
Square brackets hold non-standard residues; d marks the D form. Peptide text beside a SMILES is read from it. Nle = CCCC[C@H](N)C(=O)O

Experiments:
[1] = system: HeLa cells; type: cell-based, human; conditions: 5 hour
[2] = target: T1, Apo-2L (Homo sapiens, UniProt P50591); experiment: Inhibition of Apo-2L activity by soluble Apo-2 ECD, apoptosis by FACS; type: cell-based; conditions: Apo-2L 0.5 μg/ml pre-incubated 1 hour; Apo-2 ECD 5 μg/ml with anti-Flag antibody 1 μg/ml; FIG. 4D
T1 construct: poly-histidine; made in house
Procedure: After a 5 hour incubation, the cells were analyzed for apoptosis by FACS (as above) (FIG. 4D).
Target sequence in this assay (P50591 114-281 limits assumed): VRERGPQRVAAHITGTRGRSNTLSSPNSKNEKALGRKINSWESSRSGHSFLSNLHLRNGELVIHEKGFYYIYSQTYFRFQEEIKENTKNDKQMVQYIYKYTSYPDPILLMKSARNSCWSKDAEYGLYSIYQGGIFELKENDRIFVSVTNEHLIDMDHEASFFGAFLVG

[3] = target: T2, lymphotoxin-alpha (Homo sapiens, UniProt P01374); experiment: BIACORE analysis of purified Apo-2 ECD; type: binding
T2 sequence (P01374 35-205): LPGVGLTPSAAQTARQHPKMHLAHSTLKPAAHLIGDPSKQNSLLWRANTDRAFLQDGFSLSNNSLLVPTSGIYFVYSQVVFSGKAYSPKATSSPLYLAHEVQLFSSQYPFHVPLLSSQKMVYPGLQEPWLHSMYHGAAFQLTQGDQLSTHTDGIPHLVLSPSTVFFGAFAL
Source text: (§1) The binding interaction was further analyzed by purifying Apo-2 ECD from the transfected 293 cell supernatants with anti-Flag beads (see Example 2) and then analyzing the samples on a BIACORE™ instrument.

[4] = target: TNF-alpha (Homo sapiens, UniProt P01375); experiment: BIACORE analysis of purified Apo-2 ECD; type: binding
Source text: as §1

[5] = target: T3, Fas/Apo-1 ligand (Homo sapiens, UniProt P48023); experiment: BIACORE analysis of purified Apo-2 ECD; type: binding
T3 construct: purchased Alexis Biochemicals
T3 sequence (P48023 103-281 limits assumed): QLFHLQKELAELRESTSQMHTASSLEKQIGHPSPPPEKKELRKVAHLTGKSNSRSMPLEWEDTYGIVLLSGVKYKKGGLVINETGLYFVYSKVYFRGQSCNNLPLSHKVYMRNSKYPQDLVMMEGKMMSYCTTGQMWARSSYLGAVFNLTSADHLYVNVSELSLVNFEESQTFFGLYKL
Source text: as §1

[6] = target: T1, Apo-2L; experiment: Co-precipitation (immunoprecipitation) assay of Apo-2 ECD-Flag with His-tagged Apo-2L; type: binding; conditions: 293 cell supernatant with Apo-2 ECD-Flag, 5 μg poly-histidine-tagged soluble Apo-2L; FIG. 3
Procedure: The samples were subjected to immunoprecipitation using 25 μl anti-Flag conjugated agarose beads (Sigma) or Nickel-conjugated agarose beads (Qiagen). After a 1.5 hour incubation at 4° C., the beads were spun down and washed four times in phosphate buffered saline (PBS). […] The precipitated proteins were released by boiling the beads for 5 minutes in SDS-PAGE buffer, resolved by electrophoresis on 12% polyacrylamide gels, and then detected by immunoblot with anti-Apo-2L or anti-Flag antibody (2 μg/ml) as described in Marsters et al., J. Biol. Chem., (1997).
Target sequence in this assay (P50591 39-281 limits assumed): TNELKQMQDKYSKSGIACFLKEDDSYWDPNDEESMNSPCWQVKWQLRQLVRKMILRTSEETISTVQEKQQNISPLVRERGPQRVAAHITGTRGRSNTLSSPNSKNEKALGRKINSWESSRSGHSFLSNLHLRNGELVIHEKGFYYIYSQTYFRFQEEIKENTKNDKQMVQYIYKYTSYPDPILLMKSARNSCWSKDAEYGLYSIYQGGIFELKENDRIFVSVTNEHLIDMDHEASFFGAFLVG

[7] = system: HeLa cells transfected with Apo-2; type: cell-based, human

Sequence of TNF-alpha (P01375 77-233 limits assumed): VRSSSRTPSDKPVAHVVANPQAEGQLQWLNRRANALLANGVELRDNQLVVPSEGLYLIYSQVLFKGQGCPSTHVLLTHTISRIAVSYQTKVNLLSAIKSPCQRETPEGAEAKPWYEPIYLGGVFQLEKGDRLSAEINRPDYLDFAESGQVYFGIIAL

Q: For CCCC[C@@H](C=O)NC(=O)[C@H](CC(C)C)NC(=O)[C@H](CC(C)C)NC(C)=O [ALLN, N-acetyl-Leu-Leu-norleucinal] (Ac-Leu-Leu-[Nle]-aldehyde), which “effect on level of Apo-2L-induced apoptosis” value [1] is on record?
A: increased the level of Apo-2L-induced apoptosis

Q: “Apo-2 ECD: Soluble Apo-2 extracellular domain (amino acid residues 1-184 of FIG. 1) fused to a C-terminal Flag epitope tag” was tested. Which “blocking of Apo-2L action (apoptosis in HeLa cells)” value [2] did it give?
A: capable of blocking Apo-2L action

Q: And the binding to lymphotoxin-alpha [3]?
A: not capable of binding

Q: What about the “binding to TNF-alpha” value [4] of the same molecule?
A: not capable of binding

Q: And the “binding to Fas/Apo-1 ligand” value [5]?
A: not capable of binding

Q: And the “complex formation with Apo-2L by co-precipitation” value [6]?
A: can associate with each other

Q: For DEVD-fmk, which “effect on apoptosis induction by Apo-2” value [7] is on record?
A: blocked apoptosis induction by Apo-2

Q: cyclohexamide was tested. Which “effect on level of Apo-2L-induced apoptosis” value [1] did it give?
A: increased the level of Apo-2L-induced apoptosis

Q: For z-VAD-fmk, which “effect on apoptosis induction by Apo-2” value [7] is on record?
A: blocked apoptosis induction by Apo-2
